Patent US20240294622A1

Target: DAN-his (Sinobiological) (human) (UniProt P41271)
Assay: blocking ELISA: coated BMP2, antibody pre-incubated with human DAN-his, anti-his HRP; blocked ligand BMP2; fit value of a flat control curve; unit from the axis Concentration(nM)

Chain of DAN-his (Sinobiological) (human) (P41271 17-181 limits assumed): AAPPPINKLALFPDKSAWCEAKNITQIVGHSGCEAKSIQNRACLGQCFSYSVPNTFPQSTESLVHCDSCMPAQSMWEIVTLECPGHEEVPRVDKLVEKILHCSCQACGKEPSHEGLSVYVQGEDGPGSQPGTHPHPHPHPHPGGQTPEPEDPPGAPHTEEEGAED

Q: IgG1 (antibody) was tested. Which IC50 did it give?
A: 24.7 nM
